Test results: a protein production outcome set (Wang et al. 2014)

Assay: label from the status in PepcDB records

Row | Sequence | protein production
1 | MRIRLLGGLEVMSREHRQVRFTTRKTSLLFAALVLGGRRGYRRELLSETFWPGRSNEQARNSLRQALVDIRRSFPAGGDAPVYIDGDQETVALITGPDETDISIFDRKLEAGRTADLAFAADLYRGEVLAGEAIPDELDEWFGPYRSTYQRKALQLVERLSQALSEPGTAEESACEGLAERLLAMDPTVEAAHRALMQIHALRGHENAALRQFEACRALLRKHLQAEPEAETSSLAASLQSRQGSEHRRTTPGPDPVPQPQAISAPAKHHDRPSVAVLPFQNLSGDAEQEYFADGIVEDITIALAQFRHLYVIARNSSFTYKGQAVDIKQVGRELDVRYVVEGSVRRTGDRLRIAGQLIDTSTGTHLWADRFDGTLANVFDLQDQVASSIVGAITPKVEEAEIERAKRKPTESLDAYDYYLRGLAAFDRTVTNRSVIDEALRLFREAIERDPEFAVAHARAARCYATRKSNGWMLNPADETAEATRLARRAVELGWDDAVALTYGGYVIGYVGGDLDDSAACIDRAVSLNPNLAAALGVSSWVKVCLGEPDKAIEHATLAMRLSPLDPRLFAWQFNIGLAHFCAGHYDDAAVWAGKSLRHQLNYPSAMRVMAASQAMAGRLAQARETIARLCLMDPALRLSNLADVLPPFRRPDDRNRYIEALRMAGLPE | failed
2 | MFEVTVSKRLLKSGIIVSAMTLISRVLGLVRDVVVANLMGAGASADVFFFANRIPNFLRRLFAEGAFSQAFVPVLTEYHASGDINKTRDLIARASGTLGVLVTIVTLIGVLGSGAVTALFGAGWFLDWLNGGPAAGKFELASLLLKITFPYLWFITFVALSGAILNTLGKFAVSSFTPVFLNVMMILCAWYLSPNLEQPEVGLAIGVFLGGLVQFLFQLPFLIKAGVLVRPKWGWKDPGVVKIRTLMIPALFGVSVSQINLLFDSFVASFLQTGSISWLYYSDRLLEFPLGLFGIAIATVILPALSRKHVDAHSDGFAHTMDWGIRMVTFLGIPAMLGLMVLAKPMLMVLFMRGEFTPSDVEQASYSLLAYSSGLLSFMLIKVLAPGYYSRQDTKTPVRYGIIAMVSNIVLNAIFAWFYGYVGLAVATSMSAFLNMALLYRGLHLQGVYHLTRKTVWFVARLAMAGAVMTGALLWQLDTMATWLSWGISQRALTLTGLIGLGVASYLAILLLLGVRLKDLKAATE | failed
3 | MLDASPATARSPLEKRRPNVCREEQLTLVRLSRPCAQAFIDTIQFWKQGCSGPRWCVGYERRIRYYIIYRHVYATEHQTVFRCCPGWIQWDDEPGCFSSLSSLGTHFSGRECSYQDTRQCLCSQGFHGPHCQYDINECAVDNGGCRDRCCNTIGSYYCRCQAGQKLEEDGRGCEDVDECAVVNGGCQQRCINTLGTFHCECDTGYRRHADERTCIRIELEIVNICEKNNGGCSHHCEPAIGGAHCSCNHGHQLDTDGKTCIALDEQLEEEEEEIDILRFPGRLAQNPPQPFPYLDPSLTASYEDEDNDDADSEAEGEVQGLTALYRVVCLDGTFGLDCSLSCEDCMNGGRCQEGKSGCLCPAEWTGLICNESSVLRTGEDQQAPAGCLKGFFGKNCKRKCHCANNVHCHRVYGACMCDLGRYGRFCHLSCPRGAYGASCSLECQCVEENTLECSAKNGSCTCKSGYQGNRCQEGTIR | failed
4 | MRSRGEPLPAGGRMKTLAFVALALAGISWGLGFPTGKLILRETDAAHMVLLRFLVAAVAAAPFALRRPEVRALFRSPIVLLAGALYGVAFLVQFEGLAHVSVTVAALLVGAMPALIAVSARVLGEKVSRLSWAGVAAATLGAALIAGKPDGASSPLGVALSIAALFLFLTWLLVLRRAPPAPNPMAIPAVSIIVAALVVLPIALIMHGPPKLALSAPAWTAIVAQGVLATLLATAAWQYGAAQVGAASAGVFINIEPLMGAACGVLLFGDHLTAALFAGGLLIIGGSFAVVMGERQAKPGEIQATVAPTP | failed
5 | MSLSDQEFDEKYLELSEELKQSEKHKGTLDQGASQFLNAIEFVLRVYRQTEVIYVYAHLKNDQDTGNTDYQALYARASSLFSKVSEAVSWFEPEILQLSDDQIWQYFKEEPKLEVYRHYIQQIVDNRAHVLSAEQESLLAGAGEIFDASSDTFAVLNNADLVFPTIEGENGEIVQLSHGVYGQLLESTDRRVREAAFKGLYSVYEQFRNTFASTLGTHIKGHNFKAKVRNYSSAREASLSNNHIPESVYDTLVDVVNKHLPLLHRYMELRKRLLEVEKLHMYDLYTPVLGEAPITFTYEEAKEKALEALKPMGEEYMAIVEKAFSERWIDVVENKGKRSGAYSSGSYDTNPYILLNWHDTLDQLFTLVHEMGHSVHSYFTRSNQPYVYGDYSIFLAEIASTTNENILTEYLLETEKDPRVRAYVLNHYLDGFKGTVFRQTQFAEFEHFMHTEDEKGVPLTSEYLSDSYGKLNAKYYGPAVEEDPEIKFEWSRIPHFYYNYYVFQYSTGFSAASALAKKILNQEPEALENYLAYLKAGNSDYPVEVMKKAGVDMTQAAYIEDAMSMFEQRLNELEELIDREGHHHHHH | not failed
6 | NLDPQRVEQEMILLAQRIDVAEELDRLQMHVKETTNILKKGGAVGRKLDFMMQELNRESNTLASKSINADITASAVELKVLIEQMREQIQNLE | failed
7 | MAKEGEHSGAKEVKLTKPKISLSDLTFVIYVTTREKLSSSTISCEEIPLKKCGAELECGSNDRFHIQVENLSHMGISKSRMAGVKIECEVIYKEDSEDEAVVRIVNAERPLGTNFGWLNNDLLAPLAHRGLTAEIQLSFNSELLDKIDLQIFHRGEGRYFSQDDTLGYLQCFFPSKI | failed
8 | MWSGVVTERKISRRLRLIKRVREEYVRDDVSCGFECCGGPCRASGKASVFAIPDANVVSRYRALLKSDYVAAIICQSVLSELSKNDERGLRDVARERGYPVFCDSFCRSTHGKGLEGVLEFYRAHLPQHNFTILDIGNIGEYGRYVSDDIRDLLENVDEKEATEYEEYVENLDILYGRKGLYRGTLEVSMYNCYSGFVVDGDVKVLVVGKKNMNRALSGDEVYVEVVDEYDEDGILLDNEEGTQETRKGAAGEGVFGKVVGIHRRKCRAVIGSISPRTVHGDGAQNVLVIPIDRRIPAIRIRTSQAEELMNKRLCVEIDGWERTSNYPSGHYYRRLGTLGDRNAEMEAVLVANGITYYNKNWAEILRVPWMNEDIFGMEKAYNEVREGTREDFRELSIVSIDPPDCEDIDDALHCRLLPNGNWEVGVHIADVTYYVTKGSEIDKIAADRGTTIYLPEWRIDMLPPALSTDLCSLVAGKDRAAFSVVWEMSSDVRVVRTHFCRSLIRSKRSFSYNEAYDAVQGLVDAGDEVSRSLRMLLEISRVLRSRRFAKGSLDLSTRQLVFREGGFEMKEYFPTNFLVEEFMVLANISVASFIYHHHPDSSLLRKHPPPSVLDIGLDIDTSSPRALSESLEKMEGVRKDLAKRMLIRSMNQAVYVVSGETPSLHHYGLATPIYTHFTSPIRRYADIIVHRILNHILQTAPTKEAQINKLGIVTFRARKRTDGESMDEVFVDEDMCRNMNSRHRAARKAAWECDKLTVYMALRNEEPVVRGFVTNIKPNGIVVYVPEYSLEEVVVSEGCFEMFQEVWVKIRRDDEKFFLRRRFTFEIVGLSSPC | failed
9 | MPARQSFTDLKNLVLCDIGNTRIHFAQNYQLFSSAKEDLKRLGIQKEIFYISVNEENEKALLNCYPNAKNIAGFFHLETDYVGLGIDRQMACLAVNNGVVVDAGSAITIDLIKEGKHLGGCILPGLAQYIHAYKKSAKILEQPFKALDSLEVLPKSTRDAVNYGMVLSVIACIQHLAKNQKIYLCGGDAKYLSAFLPHSVCKERLVFDGMEIALKKAGILECK | not failed
10 | MKNKKNNYDLMYFIPLVFLIYPIGGILYYHYPFWTLFFTLAFVGAYLYSVIIRGESKYHMIAWSTMLTYIFYMTIFINSGFIWYIYFLSNLLVYRFRDKLKSFRFISFACTLATVVFLCFFKASDFGDRIMFLIVPIFCIGYMWIAIENRNSEEQREKIAEQNQYINILSAENERNRIGRDLHDSLGHTFAMMTLKTELALKLLEKRNYDKVQKELSELNHISHQSMSEVRQIVSNLKYRTVVEEIDELYRLFQLSNIKLTVVNKLETSQLSPVTQSTITMILKELSNNIVKHAEADSVELSLVRQGATINIEMIDNGCGFTNLDGDELHSIQERLTIVEGTLTILSRSKPTHIQVVLKEV | failed
11 | MLTAQSEYVKKLRPLLPPEAFQADPKKLVILGLNLGIYVAGLTIARHLHQWPGQWLWLFLPMALLMGNSVTVFLFGSHDLMHGSVLKKRSKISYLISLLGLSLWWMPPSQWRSLHNQVHHNNTNSLRDPDRNYLHEQPKTWGKWIHHLFAPSGEVNTLWLIFGMGTAWGVHNFRNLISVLFFTGGNADFVPAAFTVKAQDRQRIWLELAAIGAVHLSILFYLQFQLIPIILGYFLPIFLGHAMGMFYIYTNHLACPMTDINDPLVNSVSLRMPKLFDCLHFNFSYHTEHHLFPDVNSDYYPLVQDLLQTHYPGQMNLLTAKEAWKMLLETPRHYQGETTLVGYNGGETIACPLPKNVPDLTETKVTASV | failed
12 | NQPAYKDSSLSPEERAEDLLQQLTLEEKVALMMDNSKPVERLGIKPYNWWNEALHGVARSGLATVFPQPIGMAASFEPDAIHTIYTAVSDEARAKNAAYSAAGSYERYQGLTMWTPTVNIYRDPRWGRGIETYGEDPYLTSVMGVNVVKGLQCMDANQKYDKIHACAKHFAVHSGPEWNRHEFNAENIKPRDLHETYLVPFEALVKEAKVKEVMCAYNRLEGDPCCGSDRLLMQILRQDWGYDGIVLSDCGAIDDFYREKGHKTHPDAESASAAAVLSGTDLECGSSYKALVESAKKGLISEKDIDVSVKRLLKARFELGEMDDP | failed
13 | MALDNAKTSQKLQSLAELDGKAPSHRNLNVQTWSTAEGAKVLFVEARELPMFDLRLIFAAGSSQDGNAPGVALLTNAMLNEGVAGKDVGAIAQGFEGLGADFGNGAYKDMAVASLRSLSAVDKREPALKLFAEVVGKPTFPADSLARIKNQMLAGFEYQKQNPGKLASLELMKRLYGTHPYAHASDGDAKSIPPITLAQLKAFHAKAYAAGNVVIALVGDLSRSDAEAIAAQVSAALPKGPALAKIEQPAEPKASIGHIEFPSSQTSLMLAQLGIDRDDPDYAAVSLGNQILGGGGFGTRLMSEVREKRGLTYGVYSGFTPMQARGPFMINLQTRAEMSEGTLKLVQDVFAEYLKNGPTQKELDDAKRELAGSFPLSTASNADIVGQLGAMGFYNLPLSYLEDFMRQSQELTVEQVKAAMNKHLNVDKMVIVSAGPTVAQKPLEHHHHHH | failed
14 | MAFAEGALDALKVAFQEGARSLVLLSPVLFRDALLSARLGALRFGLERGGVEGFARVGRALFFGALSAGSEEVYEAWKEGLSEAGLWRWLGRLEALADERRWLRGTAARVLVVQGALDAFTPPLHGAKVADFAKGEALRFVVDEAGHLVPWEAQEEVRDLVADFLLGEGFRPLPGGLAL | failed
15 | MEGIQHPIPRTVEEVFSDFRGRRAGLIKALSTDVQKFYHQCDPEKENLCLYGLPNETWEVNLPVEEVPPELPEPALGINFARDGMQEKDWISLVAVHSDSWLISVAFYFGARFGFGKNERKRLFQMINDLPTIFEVVTGNAKQSKDQSANHNSSRSKSSGGKPRHSESHTKASKMSPPPRKEDESGDEDEDDEQGAVCGACGDNYGGDEFWICCDACEKWFHGKCVKITPAKAEHIKHYKCPSCTTSKKMKA | failed
16 | MDRLNQIQIILVETSLSANIGSAARAMKTMGLSNLRLVRPKNPLDEQATALAAGAKNILDNAQIFNTFDAAIADCQLIIGTSARLRHLQSTLVEPRECGKLIINNTNQHKIALIFGRERIGLTNEELLKCHYHLNVPTNPEYESLNLAMAVQLACYEIRMAWLELQKKPIIQPLTEEKNYPTAAAMAHFFDHTERL | not failed
17 | SAAETRNVAGAEAPPPQKRYYRQRAHSNPMADHTLRYPVKPEEMDWSELYPEFFAPLTQNQSHDDPKDKKEKRAQAQVEFADIGCGYGGLLVELSPLFPDTLILGLEIRVKVSDYVQDRIRALRAAPAGGFQNIACLRSNAMKHLPNFFYKGQLTKMFFLFPDPHFKRTKHKWRIISPTLLAEYAYVLRVGGLVYTITDVLELHDWMCTHFEEHPLFERVPLEDLSEDPVVGHLGTSTEEGKKVLRNGGKNFPAIFRRIQDPVLQAVTSQTSLPGH | not failed
